From the RNAGym collection of RNA variant scans (doi:10.7554/elife.80360) come the findings set out here.

Sequences and labels used below:
B1: Hairpin Ribozyme (parent)
chain: GUCCUCUUUCACGUGCGCGUGAAAGAGAGAAGUGAACCAGAGAAACACACGUUGUGGUAUAUUACCUGGUA

In this data set the parent is B1. In words: self-cleavage, relative activity (ratio to wild type); higher = more cleavage; co-transcriptional.
With A22U G69U, the self-cleavage was 0.259. In the case of C12A U53A, the self-cleavage worked out at 0.785. Consider A41U G42U, for which the self-cleavage came out at 0.325. In the case of G29U A43C, the self-cleavage was 0.0797. G40U U63G: the self-cleavage stood at 0.104.

Turning to C16G A23G, the self-cleavage worked out at 0.751. G19U C66A: the self-cleavage came out at 0.272. The figure for A45G G57C is 0.0828; for U20G U60A it is 0.775. In the case of A35C C65U, the self-cleavage stood at 0.433. The figure for G19A G69A is 0.347; for A36U G51A it is 0.508; for U5G C38G it is 0.133. For A24G A41G, the self-cleavage came to 0.78.

Consider A31U A36U, for which the self-cleavage was found to be 0.121. The figure for A49G C65A is 0.42; for C12A G21C it is 0.808; for C6A U7A it is 0.648. In the case of U7G A49G it was 0.421; in that of C18A U58C, 1.07; in that of C12U G27U, 0.199. The figure for A39C A41G is 0.591; for A47C U67G it is 0.123; for G25U U67C it is 0.178. Turning to A28C A30G, the self-cleavage was 0.136. In the case of G17A G68C, the self-cleavage worked out at 0.232. In the case of G17A G68A it was 0.301; in that of G15U A39C, 0.7; in that of G32A U55A, 0.107. Take C16A U60C: the self-cleavage is 0.836. The figure for A35C U53G is 0.403; for A36G U52A it is 0.791; for G17U U20G it is 0.642. The figure for A28C G54C is 0.187; for G17A G21A it is 0.792.

On to G54U U55C, for which the self-cleavage worked out at 0.18.

Take A30C A59C: the self-cleavage was 0.0289. In the case of G21C U52A, the self-cleavage worked out at 0.909.

In the case of U8A C18G, the self-cleavage came out at 0.524. On to C38A U60A, for which the self-cleavage worked out at 0.0853. A30U C66G: the self-cleavage came out at 0.165. For the variant G13C A24C, the self-cleavage was found to be 0.466.

Consider U14A G25A, for which the self-cleavage was 0.56. On to C37A, for which the self-cleavage was 0.345.

A23U G27U: the self-cleavage stood at 0.289. Turning to G15U U70G, the self-cleavage was 0.873. With U2C A45G, the self-cleavage came to 0.0514. With U5A A28G, the self-cleavage came to 0.471. The figure for G27C A47C is 0.0432; for A36U A45U it is 0.057; for C10A U67C it is 0.188.

As for G27U C50U, the self-cleavage came to 0.214.

As to G32U U62G, the self-cleavage was 0.182. The figure for G29A A64C is 0.115. In the case of G51U U52G it was 0.648; in that of G1A A45C, 0.0307.

Turning to G1A A45G, the self-cleavage came to 0.0977.

Turning to G25C U62A, the self-cleavage is 0.188.

As to G1C A36U, the self-cleavage was 0.338. G13U G32C: the self-cleavage is 0.232. In the case of G27U G32C it was 0.129; in that of A44U C65A, 0.184; in that of G27U A49G, 0.214. Take G56U C65G: the self-cleavage is 0.104. Consider A39G A47G, for which the self-cleavage came to 0.116. In the case of U20G A31G it was 0.581; in that of U5A U67G, 0.112.

With G40U A43U, the self-cleavage was 0.148. In the case of A24U G68C it was 0.0904; in that of A24G G25U, 0.527; in that of U14A C46G, 0.108.

For U8G U20A, the self-cleavage was determined as 0.353.

C18A G32C: the self-cleavage came out at 0.0795.

Turning to U2C U62G, the self-cleavage was determined as 0.0944. C12G U20G: the self-cleavage was 0.798. As for C48U A71G, the self-cleavage was 0.242. In the case of U63A C65A it was 0.219; in that of U5C U63A, 0.104; in that of G40A U67A, 0.108. As to G13C A43U, the self-cleavage was found to be 0.0989. G13C A43G: the self-cleavage is 0.144. Turning to C10U C37G, the self-cleavage is 0.299.

Consider A28C A41G, for which the self-cleavage came out at 0.352. In the case of C12G G40C it was 0.117; in that of A28G G51A, 1.25; in that of G21U U33C, 0.192.

With G51A A59C, the self-cleavage was 0.181.

Take U9C A36C: the self-cleavage turned out to be 0.491. Regarding A26C C66G, the self-cleavage turned out to be 0.12. For G21A A71U, the self-cleavage stood at 0.611.

Consider A47C U52A, for which the self-cleavage was determined as 0.407. The figure for G21U G40A is 0.309; for U2A C66G it is 0.161; for G15U A41U it is 1.41. The figure for C16U A35G is 0.937; for G13U A36G it is 0.65. The figure for U8G A59G is 0.121; for A31U G56A it is 0.0543; for A11C A59U it is 0.112.

G15U A36U: the self-cleavage amounted to 0.606. As for U20C G34C, the self-cleavage stood at 1.45. On to A26C G42U, for which the self-cleavage amounted to 0.307.

For G27A U60A, the self-cleavage was determined as 0.334. With A24G C66A, the self-cleavage turned out to be 0.214. Turning to U8C A45G, the self-cleavage came to 0.149. In the case of A28G G40C it was 0.166; in that of A22C G40U, 0.19.

Consider U5C G68A, for which the self-cleavage was determined as 0.14. As to C12U A59G, the self-cleavage is 0.116.

A64U U70G: the self-cleavage is 0.155. In the case of A31U G32C it was 0.165. With A41C G51A, the self-cleavage worked out at 1.33. Turning to A24C A45C, the self-cleavage worked out at 0.235.

Take C6A A71G: the self-cleavage is 0.606. Consider A23U A24U, for which the self-cleavage stood at 0.737.

Turning to C16A C46G, the self-cleavage worked out at 0.143.

Consider C3U G40C, for which the self-cleavage is 0.0768. Regarding C3U G40U, the self-cleavage was determined as 0.119. In the case of U53A U60A it was 1.08. For the variant U55A A61G, the self-cleavage came to 0.156.

With G1A C48A, the self-cleavage is 0.156.

As for U52G G68C, the self-cleavage was 0.283. As for G19A A39C, the self-cleavage amounted to 0.437. The figure for G42U A59U is 0.151. In the case of G34C A36G it was 1.24. In the case of A11U A22G it was 0.755. Take C10G: the self-cleavage amounted to 0.737. With A36U A39C, the self-cleavage came to 0.084.

Take A36U A59C: the self-cleavage was 0.228. The figure for U9G G56A is 0.18. The figure for C16G C66A is 0.197; for A11G U70A it is 0.627; for A23C A35G it is 0.942. In the case of C37G C48A it was 0.192. Turning to G17A U55G, the self-cleavage worked out at 0.161. As for A22G C66A, the self-cleavage was 0.172. Consider U53C A59C, for which the self-cleavage came out at 0.217. Take C38A G51U: the self-cleavage is 0.195.

As for G21C G32U, the self-cleavage came to 0.0815. As for G25C U55G, the self-cleavage is 0.13. In the case of G51C G68A it was 0.254; in that of G1A U33C, 0.0709. The figure for U5G A45C is 0.122. In the case of U33A A47U, the self-cleavage came out at 0.127. As to G21C A64G, the self-cleavage is 0.564. Take C6G A28U: the self-cleavage amounted to 0.22. In the case of U5C U55A it was 0.21. Take A26C A64C: the self-cleavage was 0.216.

As for U14G A36C, the self-cleavage was determined as 0.729. In the case of C16A A71G it was 1.04. For C38U A49C, the self-cleavage was 0.245.

A64U U67A: the self-cleavage was 0.206. In the case of A43G G69C it was 0.268. On to A31C C66G, for which the self-cleavage turned out to be 0.102. The figure for G17C G29A is 0.12; for C12A A31U it is 0.104; for U9A U62A it is 0.174.

Regarding U20A G56C, the self-cleavage was determined as 0.145. In the case of A11G U55G it was 0.223.

For the variant G34C G40A, the self-cleavage amounted to 0.576. The figure for A28U A30C is 0.167; for C3G C46G it is 0.0681; for U20G C65A it is 0.895. The figure for C6A A30U is 0.0998; for U7G C66G it is 0.0969. In the case of G34C A64C it was 0.578; in that of A43G U60G, 0.0362.
